Measurements taken from publication PMC7226213 (Cancer Science, 2020).
Changes are numbered by the printed parent chain.

What was measured:
[1] = molecular target: T1, fibroblast growth factor 19 (FGF19), full-length (human, UniProt O95750, biotin (where co-transfected with BirA biotin-protein ligase)); assay: SPR
[2] = molecular target: T1, fibroblast growth factor 19 (FGF19), …; assay: ELISA

T1 sequence (O95750 25-216): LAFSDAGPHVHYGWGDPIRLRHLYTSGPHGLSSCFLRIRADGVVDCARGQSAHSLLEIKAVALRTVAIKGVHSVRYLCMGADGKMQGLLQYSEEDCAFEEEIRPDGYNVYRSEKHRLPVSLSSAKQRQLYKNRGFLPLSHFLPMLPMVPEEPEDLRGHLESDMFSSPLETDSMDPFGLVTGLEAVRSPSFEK

B1: 31A3, human IgG1 Ab (antibody, V domains shown)
VH: not shown
VL: QAGLTQPASVSGSPGQSITISCTGTSSDVGGYNYVSWYQQHPGKAPKLMIYDVSNRPSGVSDRFSGSKSGNTASLTISGLQTEDEADYYCSSYTRSSTLVFGGGTQLTVL
binding result [1]: binds

B2: G1A8, human IgG1 Ab (antibody, V domains shown)
VH: not shown
VL: B1 VL with Y93W, T98G
fold increase of affinity over 31A3 [1]: 27 fold | fold slower dissociation rate than 31A3 [1]: 60 fold

B3: G1A8-Fab (Fab, V domains shown)
VH: not shown
VL: B1 VL with Y93W, T98G
IC50 [2]: 1.39 nM
